Five molecules from patent publication US20120003235A1 (published 2012) can be followed below.

Test [1] has as its target T1, soluble Flag-tagged LTα1β2 (UniProt P01374 35-205, limits assumed).
T1 construct: Soluble, Flag-tagged heterotrimer captured on anti-Flag M2 in Biacore; also called Ligand
T1 sequence 1: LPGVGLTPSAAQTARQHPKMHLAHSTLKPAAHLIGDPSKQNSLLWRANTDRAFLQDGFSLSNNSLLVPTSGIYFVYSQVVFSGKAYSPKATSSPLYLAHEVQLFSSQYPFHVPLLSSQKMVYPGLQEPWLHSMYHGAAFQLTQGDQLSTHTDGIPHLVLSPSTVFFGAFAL
T1 sequence 2: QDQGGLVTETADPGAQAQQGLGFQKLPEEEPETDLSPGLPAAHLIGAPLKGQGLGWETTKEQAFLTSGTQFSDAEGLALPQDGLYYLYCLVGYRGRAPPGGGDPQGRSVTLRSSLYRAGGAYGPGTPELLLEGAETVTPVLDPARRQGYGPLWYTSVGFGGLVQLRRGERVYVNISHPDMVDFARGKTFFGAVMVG
In words: SPR (Biacore 3000), Flag-LTα1β2 captured on anti-Flag M2 chip; LTβR binding site 1.

Test [2] concerns the target T1, soluble Flag-tagged LTα1β2. In words: SPR (Biacore 3000), Flag-LTα1β2 captured on anti-Flag M2 chip; LTβR binding site 2.
The target in test [3] is T1, soluble Flag-tagged LTα1β2. Description: SPR (Biacore 3000), Flag-LTα1β2 captured on anti-Flag M2 chip; apparent affinity of intact antibody.
For test [4], the target named is T1, soluble Flag-tagged LTα1β2. In words: SPR (Biacore 3000), Flag-LTα1β2 captured on anti-Flag M2 chip; Fab fragment.

B1: monomeric LTβR (receptor, UniProt P36941 28-227, looked up)
chain: SQPQAVPPYASENQTCRDQEKEYYEPQHRICCSRCPPGTYVSAKCSRIRDTVCATCAENSYNEHWNYLTICQLCRPCDPVMGLEEIAPCTSKRKTQCRCQPGMFCAAWALECTHCELLSDCPPGTEAELKDEVGKGNNHCVPCKAGHFQNTSSPSARCQPHTRCENQGLVEAAPGTAQSDTTCKNPLEPLPPEMSGTMLM
notes: Injected at 20 µM in Biacore; also called LTbR
Regarding B1, the figures for the Kd in test [1] and in test [2] were roughly 0.05 µM and roughly 1.5 µM, respectively.

B2: mAb LT105 (P2E9.7) (antibody, V domains shown)
VH: DVQLQESGPGLVKPSQSLSLTCSVTGYSITSGYYWNWIRQFPGNKLEGMGYISYDGSNNYNPSLKNRISITRDSSKNQFFLKLNSVTAEDSGTYYCARDAYSYGMDYWGQGTSVTVSS
VL: DIVLTQSPASLAVSLGQRATISCRASESVDNYGISFMHWYQQKPGQPPKLLIYRASNLESGIPARFSGSGSRTDFTLTINPVETDDVATFYCQQSNKDPYTFGGGTKLEIK
notes: only mature variable domains printed
Turning to B2, the Kd in test [3] is no more than 0.0003 µM.

B3: LT105 Fab fragment (Fab, V domains shown)
VH: B2 VH
VL: B2 VL
In the case of B3, the Kd in test [4] is no less than 0.002 µM.

B4: mAb LT102 (P1G8.2) (antibody, V domains shown)
VH: EVKLVESGGGLVKPGGSLKLSCAVSGFTFSDYYMYWIRQTPEKRLEWVATIGDGTSYTHYPDSVQGRFTISRDYATNNLYLQMTSLRSEDTALYYCARDLGTGPFAYWGQGTLVTVSA
VL: DVLMTQTPRSLPVSLGDQASISCRSSQNIVHSNGNTYLEWYLQKPGQSPKLLIYKVSNRFSGVPDRFSGSGSGTDFTLKISRVEAEDLGVYYCFQGSHFPWTFGGGTKLEIK
notes: only mature variable domains printed; also called LT012
For B4, the Kd in test [3] was no more than 0.0003 µM.

B5: mAb 9B4 (antibody, V domains shown)
VH: QVTLKESGPGILQPSQTLSLTCSFSGFSLSTSGMGVSWIRQPSGKGLEWLAHIYWDDDKRYNPSLRSRLTISKDTSRNQVFLKITSVDTADTATYYCARREGYYGSSFDFDVWGAGTTVTVSS
VL: QIVLSQSPAILSASPGEKVTMTCRASSSVSYMIWYQQKPGSSPKPWIYATSSLASGVPTRFSGSGSGTSYSLTISRVEAADAATYYCQQWSYNPLTFGAGTKLELK
notes: Murine monoclonal antibody; only mature variable domains printed; kappa light chain; also called LT 9B4; LT9B4
For the molecule B5, the Kd in test [3] was no more than 0.0003 µM.
